Measurements from paper PMC8875297.
Where two headings read alike, the source gives them in different places.

| Substance | degradation_or_half_life (phosphorylation at T286) | other (phosphorylation at T286) | degradation_or_half_life (ubiquitination at K269) |
| --- | --- | --- | --- |
| cyclin D1: T286A | decreases | abolishes |  |
| cyclin D1: MLN4924 |  |  | decreases |
| cyclin D1: AMBRA1 depletion (siRNA, AMBRA1-/-, auxin-inducible degron) |  |  | decreases |
